Test results as given in publication PMC3700353.

Substrate: N[C@@H](CC(=O)c1ccccc1NC=O)C(=O)O
Assay: purified protein
Format: biochemical, Drosophila melanogaster
Settings: 50 mM potassium phosphate pH 7.4, 22 °C, 0.02–1.00 mM NFK

B1: KFase (kynurenine formamidase) (Drosophila melanogaster) (protein)
chain: MYNPRCKDLDRDYFPSYHTTRFQDQPEPNLAVLEHFVRVTKQHGRELTEKQGITVDHLRYGEGRQLVDVFYSEKTTNQAPLFVFVHGGYWQEMDMSMSCSIVGPLVRRGYRVAVMDYNLCPQVTLEQLMTQFTHFLNWIFDYTEMTKVSSLTFAGHSAGAHLLAQILMRPNVITAQRSKMVWALIFLCGVYDLRELSNLESVNPKNILGLNERNIESVSPMLWEYTDVTVWNSTKIYVVAAEHDSTTFIEQSRHYADVLRKKGYKASFTLFKGYDHFDIIEETAIDDSDVSRFLRNIEIE
B1 gave a Km of 320 ± 60 µM and a kcat of 26.4 ± 4.45 s⁻¹.
